Test results taken from PMC7374468, “Characterization of highly active 2-keto-3-deoxy-L-arabinonate and 2-keto-3-deoxy-D-xylonate dehydratases in terms of the biotransformation of hemicellulose sugars to chemicals” (Applied Microbiology and Biotechnology, 2020).

Legend:
[1] = substrate: O=C(O)C(=O)C[C@H](O)CO; experiment: purified protein, by the assay type; parameters: coupled assay with PpKGSADH, NADH formation at 340 nm, Michaelis-Menten fit, 25 °C, pH 7.5; details: pH 7.5; 25.0 °C
Experimental: (§1) To determine dehydratase activity, a coupled-assay with PpKGSADH as auxiliary enzyme was used to link the oxidation of KGSA to α-KG using NAD^+, as was described in a previous study (Beer et al. [2017]). The measurement was performed in a 96-well F-bottom plate (Greiner Bio-One, Germany). 20 μL of a diluted enzyme was added to a 96-well plate. A total of 180 μL of reaction solution containing different concentrations of either D-KDP or L-KDP with 0.5 U/mL PpKGSADH, 2 mM NAD^+, 5 mM MgCl2, 50 mM HEPES pH 7.5 (end concentration) were added subsequently. The measurement was performed with a Multiskan spectrophotometer (Thermo Scientific, Germany) by measuring the development of NADH at 340 nm at 25 °C. Enzyme activity (kcat) was defined as the number of NADH molecules formed per molecule of enzyme per second. Measurements were performed in triplicate.

[2] = substrate: O=C(O)C(=O)C[C@@H](O)CO; experiment: purified protein; type: biochemical, Azospirillum brasilense; details: 2 mM NAD+ for coupling enzyme, 5 mM MgCl2, 50 mM HEPES pH 7.5, 25 °C
[3] = substrate: O=C(O)C(=O)C[C@@H](O)CO; experiment: purified protein, by the assay type; parameters: coupled assay with PpKGSADH, NADH formation at 340 nm, Michaelis-Menten fit, 25 °C, pH 7.5; details: pH 7.5; 25.0 °C
Experimental: as §1

[4] = substrate: O=C(O)C(=O)C[C@H](O)CO; experiment: purified protein; type: biochemical, Caulobacter vibrioides; details: 2 mM NAD+ for coupling enzyme, 5 mM MgCl2, 50 mM HEPES pH 7.5, 25 °C
[5] = substrate: O=C(O)C(=O)C[C@H](O)CO; experiment: purified protein; type: biochemical, Herbaspirillum seropedicae; details: 2 mM NAD+ for coupling enzyme, 5 mM MgCl2, 50 mM HEPES pH 7.5, 25 °C
[6] = substrate: O=C(O)C(=O)C[C@H](O)CO; experiment: purified protein; type: biochemical, Pseudomonas putida; details: 2 mM NAD+ for coupling enzyme, 5 mM MgCl2, 50 mM HEPES pH 7.5, 25 °C
[7] = substrate: O=C(O)C(=O)C[C@@H](O)CO; experiment: purified protein; type: biochemical, Cupriavidus necator; details: 2 mM NAD+ for coupling enzyme, 5 mM MgCl2, 50 mM HEPES pH 7.5, 25 °C
[8] = substrate: O=C(O)C(=O)C[C@H](O)CO; experiment: purified protein; type: biochemical, Paraburkholderia xenovorans; details: 2 mM NAD+ for coupling enzyme, 5 mM MgCl2, 50 mM HEPES pH 7.5, 25 °C
[9] = substrate: O=C(O)C(=O)C[C@H](O)CO; experiment: purified protein; type: biochemical, Cupriavidus necator; details: 2 mM NAD+ for coupling enzyme, 5 mM MgCl2, 50 mM HEPES pH 7.5, 25 °C

B1: AbL-KdpD (Azospirillum brasilense) (protein)
chain: MTSSSTPRHRGIFPVVPTTFADTGELDLASQKRAVDFMIDAGSDGLCILANFSEQFAITDDERDVLTRTILEHVAGRVPVIVTTSHYSTQVCAARSLRAQQLGAAMVMAMPPYHGATFRVPEAQIFEFYARVSDAIAIPIMVQDAPASGTALSAPFLARMAREIEQVAYFKIETPGAANKLRELIRLGGDAIEGPWDGEEAITLLADLHAGATGAMTGGGFPDGIRPILEAWREGRHDDAYARYQAWLPLINHENRQSGILTAKALMREGGVIASERPRHPMPELHPDTRAELLAIARRLDPLVLRWAH
notes: N-terminal His6 tag (kept), codon-optimised synthetic gene, E. coli BL21(DE3), HisTrap purified, lower purity
[1]
  Km: 6810 ± 350 µM
  kcat: 6.65 ± 0.1 s⁻¹
  kcat/Km: 980 ± 230 M⁻¹ s⁻¹
[2]
  Km: 190 ± 20 µM
  kcat: 13.6 ± 0.3 s⁻¹
  kcat/Km: 71300 ± 300 M⁻¹ s⁻¹

B2: CcD-KdpD1 (Caulobacter vibrioides CB15) (protein)
chain: MVCRRLLAWTARAREAEDFALVRQPTCRPHMLALPSADERAPPTVSALQTLEFWGDDAVGVSEFLPEDWKAATLLGRIDFGEGPTPVLVRGGRVEDVSKIAPTVADLMNAFQPGAVIPRGEDKGPLEALDIRPVWEDPDGAAPVKLLAPVDLQCLKAAGVTFAVSTLERVIEERARGDAGEALKIRTLLAERMGGDLKSVEPGSQGAQRLKDALIADGLWSQYLEVAIGPDAEIFTKGPTLSSMGWGDQVGVRYDSHWNNPEPEVVLLCDGSGLIRGAALGNDVNLRDFEGRSALLLSKAKDNNASCAIGPFFRLFDETFGLDDVRSAEVELKITGRDNFVLDGKSNMSLISRDPAVLAGQAYGKQHQYPDGFALFLGTMFAPIQDRDTPGQGFTHKVGDRVRVSTPKLGVLENEVTTCDKAKPWTFGISALIRNLAGRGLL
notes: C-terminal His6 tag (kept), codon-optimised synthetic gene, E. coli BL21(DE3); 58-residue N-terminal extension
[3]
  Km: 2810 ± 120 µM
  kcat: 7.99 ± 0.08 s⁻¹
  kcat/Km: 2840 ± 210 M⁻¹ s⁻¹
[4]
  Km: 250 ± 10 µM
  kcat: 45.6 ± 0.3 s⁻¹
  kcat/Km: 185700 ± 200 M⁻¹ s⁻¹

B3: HsD-KdpD (Herbaspirillum seropedicae SmR1) (protein)
chain: MAHTFSLQAHLPEDHAQATLIGRIWQPGVGPVLVRIDADGAYDLTLIAATSSELLELDNPAAAVRSATNMTRIATLQELLDNADAAGRDTSRPWLLAPIDLQAVKASGVTFVASMLERVIEEQARGDAGKAESVRKAITAVIGDNLSSVVPGSPEAARLKEVLLDQGVWSQYLEVGIGPDAEIFTKAQPMSSVGLGDEVGIHPKSAWNNPEPEIVLAINSRGKVVGATLGNDVNLRDFEGRSALLLGKAKDNNASCAVGPFIRLFDANFSIDDVRRAELTMRVDGTEGFTLKGSSSMSMISRDPLQLVEHAIGPNHQYPDGLVLFLGTMFAPTQDRFGPGQGFTHQVADIVTISTPKLGALVNTVNFSDQTAPWTFGLTALFKNLADRKLI
notes: C-terminal His6 tag (kept), pET vector, E. coli BL21(DE3), HisTrap purified
[3]
  Km: 3180 ± 180 µM
  kcat: 16.9 ± 0.21 s⁻¹
  kcat/Km: 5320 ± 230 M⁻¹ s⁻¹
[5]
  Km: 170 ± 10 µM
  kcat: 58.2 ± 0.4 s⁻¹
  kcat/Km: 347900 ± 200 M⁻¹ s⁻¹

B4: PpD-KdpD (Pseudomonas putida KT2440) (protein)
chain: MTDRTNANQPLPLSHDASVFDRGSWVGRVWLPEQGPAVVLVKAGAVYDISTHVATVSALLEVDDPVAYLRALPLAEPLIALPALLGNSDPTRRTPHQPWLLAPIDLQAVKAAGVTFATSLLERVVEEQAKGDPAKADAIRDTLASRIGADLSQIVPGSAQAEALRKVLVEQGLWSQYLEVGIGPDAEVFTKAQPLSAVGHGADIGIHPKSSWNNPEPEVVLAVSSNGSIKGAMLGNDVNLRDFEGRSALLLSKAKDNNASTALGPLLRLFDESFGLDDVRAAEVDLRVEGEDGFILSGRSSMRQISRDPQDLVQQTLNENHQYPDGLVLFLGTLFAPKQDRDQPGNGFTHKPGDVVSISNPQLGTLCNRVTTSDLAPQWDFGLRALIDNLGRRGLLEVAATARPL
notes: as for B3
[3]
  Km: 6120 ± 210 µM
  kcat: 19.64 ± 0.17 s⁻¹
  kcat/Km: 3210 ± 190 M⁻¹ s⁻¹
[6]
  Km: 350 ± 10 µM
  kcat: 75.9 ± 0.6 s⁻¹
  kcat/Km: 219900 ± 200 M⁻¹ s⁻¹

B5: CcD-KdpD2 (Caulobacter vibrioides NA1000) (protein)
chain: MGVSEFLPEDWKAATLLGRIDFGEGPTPVLVRGGRVEDVSKIAPTVADLMNAFQPGAVIPRGEDKGPLEALDIRPVWEDPDGAAPVKLLAPVDLQCLKAAGVTFAVSTLERVIEERARGDAGEALKIRTLLAERMGGDLKSVEPGSQGAQRLKDALIADGLWSQYLEVAIGPDAEIFTKGPTLSSMGWGDQVGVRYDSHWNNPEPEVVLLCDGSGLIRGAALGNDVNLRDFEGRSALLLSKAKDNNASCAIGPFFRLFDETFGLDDVRSAEVELKITGRDNFVLDGKSNMSLISRDPAVLAGQAYGKQHQYPDGFALFLGTMFAPIQDRDTPGQGFTHKVGDRVRVSTPKLGVLENEVTTCDKAKPWTFGISALIRNLAGRGLL
notes: as for B3
[3]
  Km: 3960 ± 130 µM
  kcat: 9.67 ± 0.08 s⁻¹
  kcat/Km: 2440 ± 180 M⁻¹ s⁻¹
[4]
  Km: 290 ± 10 µM
  kcat: 55.8 ± 0.4 s⁻¹
  kcat/Km: 190600 ± 200 M⁻¹ s⁻¹

B6: CnL-KdpD (Nhis) (Cupriavidus necator H16) (protein)
chain: MTRTPSPTVYRGVFPVAPTVFDAQGGLDLDGQRRCIDFMIDAGSHGICILANFSEQFVLSDDERNVLMKTVLEHVDGRVPVIVTTTHFSSRLCAERSRAAQDAGAAMVMVMPPYHGATIRVPERSIYEFFATVSDAIDIPIMIQDAPVSGTTLSAPFLARMAREIGNVSYFKIEVPQAAAKLRELIELGGDAIVGPWDGEEAITLMADLEAGATGAMTGAGFPDGIRQILDAWQAGDAELAAQRYQQWLPLINYENRQGWLATSKVLMQAGGVIASDAVRHPLQPMHPATREGLLKIARRLDPLVLRWAR
notes: N-terminal His6 tag (kept), pET vector, E. coli BL21(DE3), HisTrap purified; strain given inconsistently (H16 gDNA vs N-1)
[1]
  Km: 4080 ± 210 µM
  kcat: 12 ± 0.16 s⁻¹
  kcat/Km: 2950 ± 230 M⁻¹ s⁻¹
[7]
  Km: 170 ± 0 µM
  kcat: 23.4 ± 0.1 s⁻¹
  kcat/Km: 137200 ± 200 M⁻¹ s⁻¹

B7: CnL-KdpD (Chis) (Cupriavidus necator H16) (protein)
chain: MTRTPSPTVYRGVFPVAPTVFDAQGGLDLDGQRRCIDFMIDAGSHGICILANFSEQFVLSDDERNVLMKTVLEHVDGRVPVIVTTTHFSSRLCAERSRAAQDAGAAMVMVMPPYHGATIRVPERSIYEFFATVSDAIDIPIMIQDAPVSGTTLSAPFLARMAREIGNVSYFKIEVPQAAAKLRELIELGGDAIVGPWDGEEAITLMADLEAGATGAMTGAGFPDGIRQILDAWQAGDAELAAQRYQQWLPLINYENRQGWLATSKVLMQAGGVIASDAVRHPLQPMHPATREGLLKIARRLDPLVLRWAR
notes: C-terminal His6 tag (kept), pET vector, E. coli BL21(DE3), HisTrap purified; strain given inconsistently (H16 gDNA vs N-1)
[1]
  Km: 6400 ± 170 µM
  kcat: 11.01 ± 0.08 s⁻¹
  kcat/Km: 1720 ± 160 M⁻¹ s⁻¹
[7]
  Km: 160 ± 10 µM
  kcat: 22.5 ± 0.2 s⁻¹
  kcat/Km: 137500 ± 200 M⁻¹ s⁻¹

B8: PxD-KdpD (Paraburkholderia xenovorans LB400) (protein)
chain: MSATSPSSFLPDDLGQALLVGRVWRKTDQHEGPSVVVVRGGEVFDITATVPTTADLFDREDAAPLARTAPGVSLGAVAQLIASNLPGAAAPALRLLAPCDVQAIKACGVTFAVSLIERVIEEQAAGDPAKAKEVRDTIASMIGTDLSKIEPGSDAAMKLKAELERRGAWSQYMEVGIGPDAEVFSKSQPMSAVGFGADVGLLAASTWNNPEPEIVLAVNSRGEIVGATLGNDVNLRDIEGRSALLLGKCKDNNGSCAIGPFVRLFDESFSLDSVRTASVALRVEGADDGFVLEGVSHMSEISRDPANLVAQTWGRHHQYPDGFMLFLGTMFSPIKDRDAPGAGFTHHLGDLVTISTPQLGALTNTVRLSTEIEPWTFGVRALYRNLAARGLLASA
notes: C-terminal His6 tag (kept), codon-optimised synthetic gene, E. coli BL21(DE3), HisTrap purified
[3]
  Km: 5080 ± 170 µM
  kcat: 18.73 ± 0.15 s⁻¹
  kcat/Km: 3690 ± 180 M⁻¹ s⁻¹
[8]
  Km: 280 ± 10 µM
  kcat: 63.6 ± 0.4 s⁻¹
  kcat/Km: 229800 ± 200 M⁻¹ s⁻¹

B9: CnD-KdpD (Cupriavidus necator H16) (protein)
chain: MALPLTLSATQTLPADGLAGTLVGRAWIPASDGAPAGPAVVVLRPAGVFDISDVAPTMSTLLEQGDPVTVVHNTPGRWIGKLDDLLANTADPRGSDSVARLLAPCDLQVIKAAGVTFAGSLVERVIEEQTKGDPQGAAEVRNRIQALVGERLSRIRPGSREAGELKALLIEHGMWSQYLEVGIGPDAEIFTKAPLLSALGTGTEIGLHPGSAWNNPEPEIVLAINSRGDVLGATLGNDVNLRDFEGRSALLLGKAKDNNGSCAIGPFLRLFDQSLSLDDVRRATVDLRVDGLDGFVLSGTSSMDQITRDPLELAEQVMGATHQYPDGAMLFLGTLFAPVEDRDTAGGGFTHKDGDLVTISSRQLGSLVNRVGRSDRIAPWTFGVRALMANLAARGHTTF
notes: as for B7
[3]
  Km: 2490 ± 200 µM
  kcat: 4.24 ± 0.07 s⁻¹
  kcat/Km: 1700 ± 280 M⁻¹ s⁻¹
[9]
  Km: 230 ± 20 µM
  kcat: 13.8 ± 0.2 s⁻¹
  kcat/Km: 58900 ± 400 M⁻¹ s⁻¹
